Experimental data as given in article PMC9094657, “A bioactive phlebovirus-like envelope protein in a hookworm endogenous virus” (Science Advances, 2022).

Assays:
[1] = molecular target: Atlas GC ectodomain GPL binding pocket mutant R86A (Ancylostoma ceylanicum)
[2] = molecular target: Atlas GC ectodomain fusion loop mutant F136A/F137A (Ancylostoma ceylanicum)
[3] = molecular target: the molecule itself; assay: SEC-MALS; Superdex 200 (10/300), 293 K, 20 mM tris pH 7.8, 0.15 M NaCl, 5% glycerol, 0.5 mM TCEP; 100 ul at 1.6 to 2.5 mg/ml; self-association (trimer)

Atlas GC ectodomain GPL binding pocket mutant R86A (domain or fragment)
stoichiometry N [1]: 3

Atlas GC ectodomain fusion loop mutant F136A/F137A (domain or fragment)
stoichiometry N [2]: 3

B1: Atlas GC ectodomain (soluble ectodomain fragment of the phlebovirus GC-like Env of Ancylostoma ceylanicum Atlas virus, polyprotein residues 2330 to 2772) (domain or fragment, UniProt A0A016UZK2 2330-2772, looked up)
chain: CSEVISVTSTEEVCTIQENKETCTFNHATTITLQPLQQQTCLTLNDPEKRPMGMLTVKPDGIKFRCNKKIEFFTRDHQIVSESVHRCHRAGSCHSDECHHVKDTDALPEFSSEANSRPGYTSCSSSCGCITCDGCFFCEPSCLFHRLYAIPTTPTIYSIFYCPSWELEVDAEISLQREDETTTSTIRLLPGRTSTWNNIRFSLIGTIVPQLPILSSAFVTNGRQTSIVKPAYAGQLQSNSVGQLQCPNLEAAKQFECHFSRNLCTCTNALHKVSCTCYDGSVEDHMEALPLPQTSKNFLVFEKDRNIYAKTHVGSALQLHIVAQDLKITTVKHTSHCQVEASDLSGCYSCTSGASLTLSCKSDNGEVLANMKCNEQTHVIRCTESGFINNILLMFDTSEVAADCTAACPGGIVNFTIKGLLAFVNERIISQSYSATDVERNIK
notes: The C-terminal V5 and histidine tags were optionally cleaved with carboxypeptidase A; The atomic model covers residues 2330 to 2769; also called GC trimer; WT
stoichiometry N [3]: 3
